Laboratory results as given in patent publication US8273357B2, “Antigen-carbohydrate conjugates” (Massachusetts Institute of Technology, priority 2004, dated 2012).
Values joined by “and” are separate entries in the source; they are usually repeats but may differ in a detail not shown here. Equal entries are not always repeated. “Also recorded” adds a separate entry of the source.

Legend:
[1] = test system: CD11c+ dendritic cells / OTII T cells; test: Antigen presentation assay, purified CD11c+ dendritic cells and purified OTII T cells; format: cell-based, mouse
Protocol: FIGS. 4A, 4B, 4C and 4D are graphs showing that CD11c^+ dendritic cells are the main antigen presenting cells presenting 3-1-targeted antigen. […] 1.5×10^4 Splenic CD11c^+ dendritic cells purified from C57BL/6 mice and 3.0×10^4 purified OTII T cells were incubated with OVA (starting concentration 300 μg mL^−1) or (OVA)-3-1 (starting concentration 25 μg mL^−1) in graded doses for eight-four hours with [^3H]thymidine (1 μCi) added for the last twelve hours. […] Purified CD11c^+ dendritic cells and OTII T cells were incubated with (OVA)-3-1 (25 μg mL^−1)±each potential inhibitor (100 μg mL^−1). T cell proliferation was determined as for FIG. 4A. […] CD11c^+ dendritic cells and OTII T cells were incubated with OVA or (OVA)-3-1±lipopolysaccharide ([…]). Also included are all ‘non-dendritic cells’ (macrophages and B cells) obtained during the purification of the dendritic cells. T cell proliferation was determined as described in FIG. 4A. […] Supernatants from cells described in FIG. 4C were collected at forty-eight and seventy-two hours and measured for IFN-γ by ELISA; the values presented are from the seventy-two hour time point. All measurements here were performed in triplicate.
To confirm that the increased T cell proliferation observed with (OVA)-3-1 was due to the selective uptake of this conjugate by dendritic cells and not B cells or macrophages, purified CD11c^+ dendritic cells were prepared from wild-type C57BL/6 mice and the OVA-specific T cells from transgenic OTII mice (see Materials & Methods). The in vitro antigen presentation assays described above were then repeated. […] By comparison, >50-fold more unmodified OVA was required to obtain similar levels of T cell proliferation. When B cells and macrophages were used as antigen-presenting cells in place of purified dendritic cells, the resulting T cell responses were negligible (FIG. 4C), providing strong confirmation that CD11c^+ dendritic cells are the main antigen-presenting cells mediating uptake and presentation of (OVA)-3-1 to OTII T cells.
Pooled inguinal lymph nodes were dissociated in 10% Fetal Bovine Serum RPMI (supplemented with 2 mM L-glutamine) and either mechanically dissociated between two glass slides or, to improve the overall cell yield, incubated in the presence of collagenase (Boehringer) and EDTA for 25 minutes at 37° C./5% CO2 to dissociate DC-T cell clusters. For antigen presentation assays with whole splenocytes, isolated spleens were injected with collagenase/EDTA, gently teased apart and incubated as described above. Splenocytes were cultured in 96-well round-bottom plates at a density of 3×10^5 cells/0.2 mL. In antigen presentation assays utilizing purified dendritic cells and T cells, dendritic cells were isolated from the spleens of C57BL/6 mice following collagenase/EDTA treatment by labeling the dendritic cells with commercially available magnetic microbeads linked to an anti-CD11c^+ antibody (Miltenyi Biotec, Bergisch Gladbach, Germany) (according to the Miltenyi Biotec protocol) and separating labeled Dendritic cells from non-dendritic cells by application of a magnetic field. Similarly, purified […] T cells were obtained from spleens of OTII transgenic mice using magnetic beads Dynal (Oslo, Norway). Purified dendritic cells and T cells were seeded onto 96-well plates round-bottom Plates at a 1:2 DC:T cell ratio unless stated otherwise in the Figures.

OTII T cells = test: Adoptive transfer of CFSE-labeled OTII cells, immunization with CFA or mBSA, cell number and CFSE dilution; format: in vivo, mouse; conditions: for T cells that had undergone cell division: antigen 50 ng ± mBSA 50 μg subcutaneous, CFSE
Protocol: FIGS. 7A and 7B are a series of dot plots showing that inflammatory stimuli dampen the effects of DC targeting by (OVA)-3-1. FIG. 7A includes two dot plots showing the 5-(6)-carboxyfluorescein diacetate succinimidyl ester (CFSE), a cell-permeable dye, intensity present in a population of cells. 2×10^7 CFSE-labeled OTII splenocytes were adoptively transferred to B6.Ly5.2/Cr recipients and the mice were immunized subcutaneously with OVA (200 ng) or (OVA)-3-1 (200 ng) emulsified in Complete Freund's Adjuvant. At seventy-two hours post immunization the draining inguinal lymph nodes were isolated and the expansion of CD45.2^+Vα2^+ was evaluated for CFSE dilution by flow cytometry. 4×10^5 total counts were collected. The plots display the CFSE intensity associated with the gated population of Vα2^+CD45.2^+ donor cells. The numbers indicate the percentage of CFSE high (undivided; R3 gate) and CFSE low (divided; R4 gate) OTII T cells. FIG. 7B is a series of five dot plots showing the enhancement in T cell proliferation promoted by neoglycoprotein mBSA. CFSE-labeled OTII splenocytes were adoptively transferred as in (A) and mice were immunized subcutaneously with mBSA (50 μg); OVA (50 ng); (OVA)-3-1 (50 ng); OVA (50 ng)+mBSA (50 μg) or (OVA)-3-1 (50 ng)+mBSA (50 μg). At 3 days the mice were sacrificed and isolated cells were analyzed as described in (A). Both FIGS. 7A and 7B are results from one of two separate experiments.
These cytokines aid in the recruitment and activation of monocytes and dendritic cells at the site of administration, thereby promoting a heightened immune response. […] Prior to transferring the CD45.2 OTII T cells to the B6.Ly5.2/Cr recipients, the cells were stained with 5-(6)-carboxyfluorescein diacetate succinimidyl ester (CFSE), a cell-permeable dye that freely crosses the cell membrane; once inside the cell, however, cellular esterases hydrolyze the CFSE's ester functional groups to generate a negatively charged molecule that cannot cross back across the cell membrane. This dye is used to monitor cell division by flow cytometry as each successive cell division leads to a dilution of CFSE among the daughter cells.
To administer pro-inflammatory stimuli at the same time as soluble antigen, OVA and (OVA)-3-1 were emulsified in Complete Freund's Adjuvant (CFA) prior to immunization. CFA is an oil-based mixture of mycobacterial cell wall components that is known to induce strong TH1 T cell responses^2. Seventy-two hours after immunization, cells from the draining lymph nodes were isolated and analyzed by flow cytometry for cell number and divisions (FIG. 7A). […] In fact, the enhancement previously observed relative to soluble OVA (FIG. 6B) was largely diminished. […] Without being tied to one particular theory, one potential reason for this observation could be that dendritic cells targeted with (OVA)-3-1 produced more peptide-MHC class II complexes than those targeted by OVA as receptor-mediated endocytosis delivered more antigen to the cell before full maturation was reached^10.
Since most lectins have weak affinities for monosaccharides, these experiments were repeated with BSA that was modified with approximately 25 mannose residues per protein molecule (mBSA). […] Mice that had received CFSE-labeled OTH T cells were immunized with mBSA, OVA, (OVA)-3-1, OVA plus mBSA, or (OVA)-3-1 plus mBSA and their T cell responses were analyzed at seventy-two hours (FIG. 7B). […]

[2] = purified CD11c+ dendritic cells and OTII T cells

For “mBSA: BSA modified with approximately 25 mannose residues per protein molecule [reference compound]”, the “inhibitory effect on (OVA)-3-1 presentation by dendritic cells” value ([1]; (OVA)-3-1 25 μg mL^−1, inhibitor 100 μg mL^−1) was “Neither mBSA nor Lewis^x-BSA were inhibitory” and the “OTII T cell proliferation after immunization with mBSA alone” value (OTII T cells; mBSA 50 μg subcutaneous, 72 h) was “did not proliferate”.

B1: (OVA)-3-1: ovalbumin modified via SMCC with nonasaccharide 3-1, average of three saccharides per OVA (conjugate)
chain: GSIGAASMEFCFDVFKELKVHHANENIFYCPIAIMSALAMVYLGAKDSTRTQINKVVRFDKLPGFGDSIEAQCGTSVNVHSSLRDILNQITKPNDVYSFSLASRLYAEERYPILPEYLQCVKELYRGGLEPINFQTAADQARELINSWVESQTNGIIRNVLQPSSVDSQTAMVLVNAIVFKGLWEKAFKDEDTQAMPFRVTEQESKPVQMMYQIGLFRVASMASEKMKILELPFASGTMSMLVLLPDEVSGLEQLESIINFEKLTEWTSSNVMEERKIKVYLPRMKMEEKYNLTSVLMAMGITDVFSSSANLSGISSAESLKISQAVHAAHAEINEAGREVVGSAEAGVDAASVSEEFRADHPFLFCIKHIATNAVLFFGRCVSP
B1 was tested, and the “capture and presentation by purified CD11c+ dendritic cells to OTII T cells compared to soluble OVA” value ([1]; parallel titration series) was “highly efficient; also recorded: efficiently present”, the “decrease in presentation to OTII T cells as a result of TLR-mediated dendritic cell maturation” value ([1]; plus lipopolysaccharide (LPS)) was 60% and the “presentation to T cells upon TLR-4 stimulation” value ([1]; plus lipopolysaccharide (LPS)) was “remained better than targeting by unmodified OVA; also recorded: significantly decreased”. The “low concentration at which capture and presentation was still highly efficient” value [1, 2] was 16 nM, the “increase in OTII T cell number compared to OVA” value (OTII T cells; 50 ng subcutaneous, 72 h) was 2 fold and the “T cells that had undergone cell division” value (OTII T cells; 72 h) was 58% and 55%. The “enhancement of T cell activation / proliferation relative to OVA in saline” value (OTII T cells; in vivo immunization) was 2 fold.

B2: ovalbumin (protein, UniProt P01012 2-386, looked up)
Ovalbumin: B1 chain
notes: model antigen, unmodified
In the case of B2, the “decrease in presentation to OTII T cells as a result of TLR-mediated dendritic cell maturation” value ([1]; plus lipopolysaccharide (LPS)) is reported as 30%, the “excess of unmodified OVA required to obtain levels of T cell proliferation similar to (OVA)-3-1” value [1, 2] is reported as over 50 fold and the “T cells that had undergone cell division” value (OTII T cells; 72 h) is reported as 33%.
